From patent US7399752 come the findings set out here.

This experiment addresses LS-Rg, chimeric protein of the extracellular domain of human L-selectin joined to the Fc domain of a human G2 immunoglobulin (human) (UniProt P14151). Description: competition with radio-labeled 2'-F RNA ligand LF1807 for purified LS-Rg.

Chain of LS-Rg, chimeric protein of the extracellular domain of human L-selectin joined to the Fc domain of a human G2 immunoglobulin (human) (P14151 39-332, change not shown): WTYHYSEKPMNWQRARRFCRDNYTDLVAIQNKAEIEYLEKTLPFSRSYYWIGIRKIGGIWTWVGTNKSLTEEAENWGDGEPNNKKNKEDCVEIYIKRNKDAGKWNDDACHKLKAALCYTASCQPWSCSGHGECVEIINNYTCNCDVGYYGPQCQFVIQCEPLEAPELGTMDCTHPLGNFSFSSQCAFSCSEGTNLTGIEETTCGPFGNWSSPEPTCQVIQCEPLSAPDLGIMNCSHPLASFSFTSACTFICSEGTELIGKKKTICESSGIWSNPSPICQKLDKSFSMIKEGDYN

“DREG-56, L-selectin specific blocking monoclonal antibody”: the concentration at which inhibition was complete was 300 nM.
